# Test results: IntAct's records for PubMed 17998537
# B1: CCR4-associated factor 4 (Saccharomyces cerevisiae), P36130 (parent)
# chain: MGSGDTRGESSLVAKPIEIILNKLPHAILAQQQFQKYITSPIYRYLSKLLLFREVAWPESTKDTQKGQVGIFSFQNNYADSATTFRILAHLDEQRYPLPNGAAEKNLPSLFEGFKATVSIIQQRLLLDNVDGATNSDKEKYVQLPDINTGFVNKTYSRIDLTHLLEDVETNVENLSINKTLEMDELTRLDSMINELESRKLKILERVKHIDSKSTNLENDVTLIKDRINFIEEYNLEADREQSLRKQMEEERSSEASSFTQNEEAISSLCDVESKDTRLKDFYKMPHEKSHDKNRQIISETYSRNTTAFRMTIPHGEHGNSITALDFDTPWGTLCSSSYQDRIVKVWDLNHGIQVGELPGHLATVNCMQIDKKNYNMLITGSKDATLKLWDLNLSREIYLDHSPLKEKTEEIVTPCIHNFELHKDEITALSFDSEALVSGSRDKKIFHWDLTTGKCIQQLDLIFTPTHSDIKMPARSLNNGACLLGTEAPMIGALQCYNSALATGTKDGIVRLWDLRVGKPVRLLEGHTDGITSLKFDSEKLVTGSMDNSVRIWDLRTSSILDVIAYDLPVSSLDFDGKLITVGANEGGVNVFNMERDEHWMTPEPPHSLDGDELSRRIAIVKYKDGFLINGHNDGDINVWTL
# partner: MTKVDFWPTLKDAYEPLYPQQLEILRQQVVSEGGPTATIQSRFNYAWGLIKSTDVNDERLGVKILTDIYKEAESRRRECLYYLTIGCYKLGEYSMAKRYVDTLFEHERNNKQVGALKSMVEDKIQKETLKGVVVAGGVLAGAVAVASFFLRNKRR
# B2: Mitochondrial division protein 1 (Saccharomyces cerevisiae), P47025 (parent)
# chain: MSVNDQITHIGKTLSTTASAFLNYQKSNSNTQDVLTNNGPYKNLLSNTVNNASSTSYFYKRTEHGRFVKNASNTFEDIYSKTRRGDVFRNKFTDNKTCFRMLTYISDDLLNEIPTKEGLKSDADGKLLTEGGENENLRKNASKKETSLFQGFKSYLPIAELAIENTERLNYDTNGTSGTVGAKDVMSKTNERDEIHTELPNFQDSFLIPPGVETKKISSSYSPSALKSFSQTLVNSLEFLNIQKNSTLSEIRDIEVEVENLRQKKEKLLGKIANIEQNQLLLEDNLKQIDDRLDFLEEYGLEVIEANSDENAEDDGMSERKALKNDAIRNEGVTTESISSEASNLPPRRRQQLRDDNSLNRLGAFYSKSKKRHRKSFPTFQQLYEPGTKIGSIMSTHDDFLTCLDFDAPFGTLCTAGYLDHTVKIWDLSKQNKIGELAGHLATINCMQINRDYGTLVTGGRDAALKLWNLNLAQQLYQETQNLTSPTNHIDSPCVHTFEAHTDEVTALSLDPSFLVSGSQDRTIRQWDLRSGKCLQTIDLSFANVLTTSTNVDLSKSTLLTQRNERPSIGALQSFDAALATGTKDGVVRLWDLRSGKVIRTLKGHTDAITSLKFDSACLVTGSYDRTVRIWDLRTGLLNKFHAYSAPVLSLDLFQENAAVVVADEPSVQIYDSEKDESWSCVEQGNETSVSTVKYKENYMVEGRENGDVNIWAV
# partner: B1 partner
# B3: Mitochondrial fission 1 protein (Saccharomyces cerevisiae), P40515 (parent)
# chain: B1 partner
# partner: B2 chain
# Variants of: B1
# Details: with fis1_yeast FIS1, P40515
row,Variant,effect of a mutation on the interaction
1,L88A,disrupting interaction strength
2,F114A,disrupting interaction strength
3,L110A,disrupting interaction strength
4,F85A;R86A,disrupting interaction strength
5,F111A,disrupting interaction strength

# Variants of: B2
# Details: with fis1_yeast FIS1, P40515
row,Variant,effect of a mutation on the interaction
1,F152A,disrupting interaction
2,F149A,disrupting interaction
3,I105A,disrupting interaction
4,F99A;R100A,disrupting interaction
5,L148A,disrupting interaction

# Variants of: B3
# Details: with mdv1_yeast MDV1, P47025
row,Variant,effect of a mutation on the interaction
1,F43A;N44A,disrupting interaction
2,I24A;L25A,disrupting interaction
3,W47A,disrupting interaction
